The test relates to NCI-H292 and Calu-6 tumor tissue. In words: In vitro binding of biotinylated AP39 to frozen sections of tumor tissue (ExtrAvidin / DAB staining). Conditions: frozen sections (5-10 μm); NCI-H292 (FIG. 1A) compared to Calu-6 (FIG. 1B). On the set-up: species or system human. The procedure: Binding studies were performed in two human NSCLC tumor models in mice: NCI-H292 which is an erlotinib-sensitive epithelial-type model, and Calu-6 which is an erlotinib-resistant mesenchymal-type model.
TCEP-reduced AP39 was biotinylated using 3-(N-maleimidopropionyl) biocytin (Sigma). The in vitro binding of biotinylated AP39 to frozen sections (5-10 μm) of NCI-H292 and Calu-6 tumor tissue was determined by utilizing ExtrAvidin (Sigma) and Liquid DAB Substrate Pack (BioGenex) according to the protocols of the manufacturers.

B1: biotinylated AP39: TCEP-reduced AP39 biotinylated using 3-(N-maleimidopropionyl) biocytin (conjugate)
scFv: EVQLLESGGGLVQPGGSLRLSCAASGFTFSSFSMSWVRQAPGKGLEWVSSISGSSGTTYYADSVKGRFTISRDNSKNTLYLQMNSLRAEDTAVYYCAKPFPYFDYWGQGTLVTVSSGDGSSGGSGGASTGEIVLTQSPGTLSLSPGERATLSCRASQSVSSSFLAWYQQKPGQAPRLLIYYASSRATGIPDRFSGSGSGTDFTLTISRLEPEDFAVYYCQQTGRIPPTFGQGTKVEIKGGGCA
As to B1, the “binding to tumor tissue, NCI-H292 compared to Calu-6” value is “more extensive binding”.
